Our source for the Kd, koff and kon values is patent US20100260668A1 (published 2010).

Usually Kd stands for a measure of binding affinity in units of concentration. Read a low Kd as tighter binding. As usually defined, the koff is the rate constant with which the complex falls apart. Low values mean a long-lived complex, high ones a short-lived complex. The kon is the rate constant with which the complex forms. A low value points to slower complex formation.

In the experiment the target is T1, DLL4 ECD His tag (UniProt Q9NR61 27-529, limits assumed).
T1 construct: extracellular domain; also called DLL ECD His tag
The experiment in a line: SPR (Biacore), DVD-Ig captured, DLL4 as analyte.

B1: DVD474 (bispecific antibody, human IgG1, kappa)
heavy: not shown
light: DIQMTQSPSSLSASVGDRVTITCRASQVIRRSLAWYQQKPGKAPKLLIYAASNLASGVPSRFSGSGSGTDFTLTISSLQPEDFATYYCQQSNTSPLTFGQGTKVEIKRTVAAPSVFIFPPDIQMTQSPSSLSASVGDRVTITCRASQDVSTAVAWYQQKPGKAPKLLIYSASFLYSGVPSRFSGSGSGTDFTLTISSLQPEDFATTYYCQQSYTGTVTFGQGTKVEIKRTVAAPSVFIFPPSDEQLKSGTASVVCLLNNFYPREAKVQWKVDNALQSGNSQESVTEQDSKDSTYSLSSTLTLSKADYEKHKVYACEVTHQGLSSPVTKSFNRGEC
notes: Outer AB071 (VEGF), inner AB015 (DLL4); HC linker long, LC linker long; also called DVD-Ig DVD474
B1: the affinity, expressed as Kd, was 1.04 nM.

B2: DVD486 (bispecific antibody, human IgG1, kappa)
heavy: not shown
light: B1 light
notes: Outer AB071 (VEGF), inner AB015 (DLL4); HC linker short, LC linker long; also called DVD-Ig DVD486
The molecule B2 gave a Kd of 2.13 nM.

B3: DVD522 (bispecific antibody, human IgG1, kappa, lambda, L234A L235A)
heavy: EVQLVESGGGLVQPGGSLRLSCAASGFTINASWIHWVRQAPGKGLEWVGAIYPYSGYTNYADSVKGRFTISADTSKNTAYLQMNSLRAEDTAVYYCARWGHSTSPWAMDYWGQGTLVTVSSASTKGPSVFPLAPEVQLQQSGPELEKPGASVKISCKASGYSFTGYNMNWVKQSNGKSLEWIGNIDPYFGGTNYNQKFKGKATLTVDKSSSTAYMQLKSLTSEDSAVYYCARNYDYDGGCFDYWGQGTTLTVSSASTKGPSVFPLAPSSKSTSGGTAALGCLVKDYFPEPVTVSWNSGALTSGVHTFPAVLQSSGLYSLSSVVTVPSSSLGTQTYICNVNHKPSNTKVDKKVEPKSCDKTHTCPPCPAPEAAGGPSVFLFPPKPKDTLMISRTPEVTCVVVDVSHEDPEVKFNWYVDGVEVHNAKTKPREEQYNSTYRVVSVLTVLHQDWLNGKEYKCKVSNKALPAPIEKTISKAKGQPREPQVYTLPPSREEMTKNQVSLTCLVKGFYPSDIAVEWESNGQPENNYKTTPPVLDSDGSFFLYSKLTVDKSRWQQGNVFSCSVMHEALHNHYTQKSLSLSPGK
light: DIQMTQSPSSLSASVGDRVTITCRASQVIRRSLAWYQQKPGKAPKLLIYAASNLASGVPSRFSGSGSGTDFTLTISSLQPEDFATYYCQQSNTSPLTFGQGTKVEIKRTVAAPSVFIFPPQAVVTQESALTTSPGETVTLTCRSSTGAVTTSNYANWVQEKPDHLFTGLIGGTNNRAPGVPARFSGSLIGDKAALTITGAQTEDEAIYFCALWYSNHWVFGGGTKLTVLGQPKAAPSVTLFPPSSEELQANKATLVCLISDFYPGAVTVAWKADSSPVKAGVETTTPSKQSNNKYAASSYLSLTPEQWKSHRSYSCQVTHEGSTVEKTVAPTECS
notes: Outer AB071 (VEGF), inner AB073 (DLL4); HC linker long, LC linker long; also called DVD-Ig DVD522
Molecule B3 yielded a Kd of 10.5 nM, a koff of 0.00121 s⁻¹ and a kon of 115000 M⁻¹ s⁻¹.

B4: DVD534 (bispecific antibody, human IgG1, kappa, lambda, L234A L235A)
heavy: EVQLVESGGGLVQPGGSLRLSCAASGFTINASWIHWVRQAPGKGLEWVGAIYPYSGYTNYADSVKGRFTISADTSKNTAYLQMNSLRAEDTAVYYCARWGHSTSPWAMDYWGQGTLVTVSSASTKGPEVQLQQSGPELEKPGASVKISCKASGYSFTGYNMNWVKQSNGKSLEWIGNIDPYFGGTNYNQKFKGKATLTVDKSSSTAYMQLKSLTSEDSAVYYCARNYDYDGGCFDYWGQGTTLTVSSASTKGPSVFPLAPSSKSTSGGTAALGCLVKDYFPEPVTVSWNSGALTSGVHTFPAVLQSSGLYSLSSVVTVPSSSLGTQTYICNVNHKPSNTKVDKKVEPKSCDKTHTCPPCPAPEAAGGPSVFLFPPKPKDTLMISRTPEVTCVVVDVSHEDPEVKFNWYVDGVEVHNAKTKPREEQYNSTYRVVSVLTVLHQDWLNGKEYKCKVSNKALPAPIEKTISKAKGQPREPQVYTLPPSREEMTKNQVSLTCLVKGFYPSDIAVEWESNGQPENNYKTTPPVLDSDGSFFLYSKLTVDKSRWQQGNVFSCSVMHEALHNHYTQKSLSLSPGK
light: B3 light
notes: Outer AB071 (VEGF), inner AB073 (DLL4); HC linker short, LC linker long; also called DVD-Ig DVD534
Consider B4, for which the affinity, expressed as Kd, was 5.78 nM; the koff came to 0.002 s⁻¹; the kon is 346000 M⁻¹ s⁻¹.

B5: DVD452 (bispecific antibody, human IgG1, kappa, L234A L235A)
heavy: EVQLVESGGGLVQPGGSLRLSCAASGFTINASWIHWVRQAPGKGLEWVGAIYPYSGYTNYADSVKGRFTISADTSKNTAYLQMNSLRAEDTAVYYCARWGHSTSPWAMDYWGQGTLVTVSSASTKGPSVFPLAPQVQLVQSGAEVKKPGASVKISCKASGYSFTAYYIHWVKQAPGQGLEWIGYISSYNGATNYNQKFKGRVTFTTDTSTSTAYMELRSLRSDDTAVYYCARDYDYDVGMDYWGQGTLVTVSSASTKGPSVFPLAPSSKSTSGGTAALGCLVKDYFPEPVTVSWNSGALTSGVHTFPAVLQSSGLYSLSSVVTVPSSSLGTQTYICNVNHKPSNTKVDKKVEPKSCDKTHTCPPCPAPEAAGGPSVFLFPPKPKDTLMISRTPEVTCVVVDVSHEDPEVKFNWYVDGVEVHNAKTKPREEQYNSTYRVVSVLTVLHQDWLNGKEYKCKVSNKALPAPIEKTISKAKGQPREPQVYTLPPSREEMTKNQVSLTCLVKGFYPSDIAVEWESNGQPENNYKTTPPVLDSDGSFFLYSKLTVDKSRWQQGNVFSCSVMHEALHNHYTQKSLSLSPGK
light: DIQMTQSPSSLSASVGDRVTITCRASQVIRRSLAWYQQKPGKAPKLLIYAASNLASGVPSRFSGSGSGTDFTLTISSLQPEDFATYYCQQSNTSPLTFGQGTKVEIKRTVAAPSVFIFPPDIVMTQSPDSLAVSLGERATISCRASESVDNYGISFMKWFQQKPGQPPKLLIYAASNQGSGVPDRFSGSGSGTDFTLTISSLQAEDVAVYYCQQSKEVPWTFGGGTKVEIKRTVAAPSVFIFPPSDEQLKSGTASVVCLLNNFYPREAKVQWKVDNALQSGNSQESVTEQDSKDSTYSLSSTLTLSKADYEKHKVYACEVTHQGLSSPVTKSFNRGEC
notes: Outer AB071 (VEGF), inner AB069 (DLL4); HC linker long, LC linker long; also called DVD-Ig DVD452
With B5, binding was characterised by a dissociation constant (Kd) of 9.3 nM, the koff is 0.00022 s⁻¹ and the kon came to 23700 M⁻¹ s⁻¹.

B6: DVD464 (bispecific antibody, human IgG1, kappa)
heavy: not shown
light: B5 light
notes: Outer AB071 (VEGF), inner AB069 (DLL4); HC linker short, LC linker long; also called DVD-Ig DVD464
On to B6, for which the Kd was determined as 5.53 nM, the koff worked out at 0.000182 s⁻¹ and the kon was 32800 M⁻¹ s⁻¹.

B7: DVD446 (bispecific antibody, human IgG1, kappa)
heavy: not shown
light: DIQMTQSPSSLSASVGDRVTITCRASQVIRRSLAWYQQKPGKAPKLLIYAASNLASGVPSRFSGSGSGTDFTLTISSLQPEDFATYYCQQSNTSPLTFGQGTKVEIKRTVAAPDIVMTQSPDSLAVSLGERATISCRASESVDNYGISFMKWFQQKPGQPPKLLIYAASNQGSGVPDRFSGSGSGTDFTLTISSLQAEDVAVYYCQQSKEVPWTFGGGTKVEIKRTVAAPSVFIFPPSDEQLKSGTASVVCLLNNFYPREAKVQWKVDNALQSGNSQESVTEQDSKDSTYSLSSTLTLSKADYEKHKVYACEVTHQGLSSPVTKSFNRGEC
notes: Outer AB071 (VEGF), inner AB069 (DLL4); HC linker short, LC linker short; also called DVD-Ig DVD446
As to B7, the dissociation constant (Kd) stood at 5.81 nM, the koff stood at 0.000169 s⁻¹ and the on-rate constant (kon) turned out to be 29100 M⁻¹ s⁻¹.

B8: DVD458 (bispecific antibody, human IgG1, kappa, L234A L235A)
heavy: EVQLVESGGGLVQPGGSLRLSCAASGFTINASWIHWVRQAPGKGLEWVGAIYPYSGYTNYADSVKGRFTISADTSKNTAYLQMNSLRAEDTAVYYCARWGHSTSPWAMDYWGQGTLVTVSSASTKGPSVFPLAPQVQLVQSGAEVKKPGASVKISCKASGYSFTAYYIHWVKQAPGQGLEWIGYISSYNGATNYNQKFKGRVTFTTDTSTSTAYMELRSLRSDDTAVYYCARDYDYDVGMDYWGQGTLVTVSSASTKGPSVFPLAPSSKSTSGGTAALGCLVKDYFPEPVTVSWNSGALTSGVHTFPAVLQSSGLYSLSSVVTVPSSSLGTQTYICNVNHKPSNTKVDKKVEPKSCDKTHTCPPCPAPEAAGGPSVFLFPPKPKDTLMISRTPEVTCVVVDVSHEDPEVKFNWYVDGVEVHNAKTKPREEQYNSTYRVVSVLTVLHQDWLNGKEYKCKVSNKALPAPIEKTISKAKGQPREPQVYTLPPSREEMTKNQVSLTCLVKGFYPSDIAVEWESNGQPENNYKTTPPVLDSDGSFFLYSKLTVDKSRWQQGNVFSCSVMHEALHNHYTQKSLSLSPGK
light: B7 light
notes: Outer AB071 (VEGF), inner AB069 (DLL4); HC linker long, LC linker short; also called DVD-Ig DVD458
B8 showed a Kd of 16.2 nM, a koff of 0.000261 s⁻¹ and a kon of 16100 M⁻¹ s⁻¹.

B9: DVD492 (bispecific antibody, human IgG1, kappa)
heavy: not shown
light: DIQMTQSPSSLSASVGDRVTITCRASQVIRRSLAWYQQKPGKAPKLLIYAASNLASGVPSRFSGSGSGTDFTLTISSLQPEDFATYYCQQSNTSPLTFGQGTKVEIKRTVAAPDIQMTQSSSYLSVSLGGRVTITCKASDHINNWLAWYQQKPGNAPRLLISGATSLETGVPSRFSGSGSGKDYTLSITSLQTEDVATYYCQQYWSIPLTFGAGTKLELKRTVAAPSVFIFPPSDEQLKSGTASVVCLLNNFYPREAKVQWKVDNALQSGNSQESVTEQDSKDSTYSLSSTLTLSKADYEKHKVYACEVTHQGLSSPVTKSFNRGEC
notes: Outer AB071 (VEGF), inner AB072 (DLL4); HC linker short, LC linker short; also called DVD-Ig DVD492
B9 registered a Kd of 1.07 nM, a koff of 8.35e-05 s⁻¹ and a kon of 78200 M⁻¹ s⁻¹.

B10: DVD504 (bispecific antibody, human IgG1, kappa)
heavy: not shown
light: B9 light
notes: Outer AB071 (VEGF), inner AB072 (DLL4); HC linker long, LC linker short; also called DVD-Ig DVD504
In the case of B10, binding was characterised by a dissociation constant (Kd) of 1.26 nM, the koff was found to be 7.32e-05 s⁻¹ and the on-rate constant (kon) was found to be 58100 M⁻¹ s⁻¹.

B11: DVD498 (bispecific antibody, human IgG1, kappa)
heavy: not shown
light: DIQMTQSPSSLSASVGDRVTITCRASQVIRRSLAWYQQKPGKAPKLLIYAASNLASGVPSRFSGSGSGTDFTLTISSLQPEDFATYYCQQSNTSPLTFGQGTKVEIKRTVAAPSVFIFPPDIQMTQSSSYLSVSLGGRVTITCKASDHINNWLAWYQQKPGNAPRLLISGATSLETGVPSRFSGSGSGKDYTLSITSLQTEDVATYYCQQYWSIPLTFGAGTKLELKRTVAAPSVFIFPPSDEQLKSGTASVVCLLNNFYPREAKVQWKVDNALQSGNSQESVTEQDSKDSTYSLSSTLTLSKADYEKHKVYACEVTHQGLSSPVTKSFNRGEC
notes: Outer AB071 (VEGF), inner AB072 (DLL4); HC linker long, LC linker long; also called DVD-Ig DVD498
B11: the Kd was 1.45 nM, the koff is 9.36e-05 s⁻¹ and the kon was determined as 64600 M⁻¹ s⁻¹.

B12: DVD516 (bispecific antibody, human IgG1, lambda)
heavy: not shown
light: DIQMTQSPSSLSASVGDRVTITCRASQVIRRSLAWYQQKPGKAPKLLIYAASNLASGVPSRFSGSGSGTDFTLTISSLQPEDFATYYCQQSNTSPLTFGQGTKVEIKRTVAAPQAVVTQESALTTSPGETVTLTCRSSTGAVTTSNYANWVQEKPDHLFTGLIGGTNNRAPGVPARFSGSLIGDKAALTITGAQTEDEAIYFCALWYSNHWVFGGGTKLTVLGQPKAAPSVTLFPPSSEELQANKATLVCLISDFYPGAVTVAWKADSSPVKAGVETTTPSKQSNNKYAASSYLSLTPEQWKSHRSYSCQVTHEGSTVEKTVAPTECS
notes: Outer AB071 (VEGF), inner AB073 (DLL4); HC linker short, LC linker short; also called DVD-Ig DVD516
In the case of B12, the affinity, expressed as Kd, was 4.99 nM; the koff is 0.000583 s⁻¹; the kon was 117000 M⁻¹ s⁻¹.

B13: DVD528 (bispecific antibody, human IgG1, lambda)
heavy: not shown
light: B12 light
notes: Outer AB071 (VEGF), inner AB073 (DLL4); HC linker long, LC linker short; also called DVD-Ig DVD528
B13 had a Kd of 4.81 nM, a koff of 0.00152 s⁻¹ and an association rate constant (kon) of 316000 M⁻¹ s⁻¹.

B14: DVD480 (bispecific antibody, human IgG1, kappa)
heavy: not shown
light: DIQMTQSPSSLSASVGDRVTITCRASQVIRRSLAWYQQKPGKAPKLLIYAASNLASGVPSRFSGSGSGTDFTLTISSLQPEDFATYYCQQSNTSPLTFGQGTKVEIKRTVAAPDIQMTQSPSSLSASVGDRVTITCRASQDVSTAVAWYQQKPGKAPKLLIYSASFLYSGVPSRFSGSGSGTDFTLTISSLQPEDFATTYYCQQSYTGTVTFGQGTKVEIKRTVAAPSVFIFPPSDEQLKSGTASVVCLLNNFYPREAKVQWKVDNALQSGNSQESVTEQDSKDSTYSLSSTLTLSKADYEKHKVYACEVTHQGLSSPVTKSFNRGEC
notes: Outer AB071 (VEGF), inner AB015 (DLL4); HC linker long, LC linker short; also called DVD-Ig DVD480
Regarding B14, the Kd is 3.38 nM, the koff came to 0.000179 s⁻¹ and the kon came to 53000 M⁻¹ s⁻¹.
